# According to the nanobody polyreactivity screen of Harvey et al. (2022):
# Assay: yeast display, Sf9 membrane polyspecificity reagent, FACS + sequencing; frameworks hold sequencing errors
# Outline: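 Nanobodies from a synthetic yeast display library (Saccharomyces cerevisiae BJ5465), induced 36–48 hours with galactose, were stained 1 hour at 4 °C with 10% biotinylated, detergent-solubilized Sf9 membrane reagent, enriched on streptavidin microbeads, then FACS-sorted. Anti-HA (expression) and streptavidin (reagent binding) fluorescence set low and high (top ~1%) gates. Polyreactivity labels come from the gate of origin. Genes were colony-PCR amplified, MiSeq 2 × 250 sequenced and filtered by CDR length.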
row,Sequence,polyreactivity (PSR sort gate)
1,QVQLVESGGCLVQAGGSLRLSCAASGSIFSLYAMGWYRQAPGKEWEFVASISRSGGITYYADSVKGRFTISRDNAKNTVYLQMNSLKPEDTAVYYCAAVGWVSYRRYDYWGPGTQVTVSS,high polyreactivity
2,QVQLVESGGCLVQAGGSLRLSCAASGSIFSRNVMGWYRKAPGKERELVAAITGSGGRTYYADSVKGRFTISRDNAKNTVYLQMNSLKPEDTAVYYCAKSRPGTYDYWGPGTQVTVSS,high polyreactivity
3,QVQLVESGGCLVQAGGSLRLSCAASGSIGTYVMGWYRQAPGKQRELVAAITSNGGRKYYADSVKGRFTISRDNAKNTVYLQMNSLKPEDTAVYYCATVNYSPRYTMYYWGQGTQVTVSS,high polyreactivity
4,QVQLVESGGCLVQAGGSLRLSCAASGSIINYYAMGWFRQAPGKERELVAGITTSGGSTYYADSVKGRFTISRDNAKHTVDLQMNSLKPEDTAVYYCAAYDYSSSTYFLDDYWGQGTQVTVSS,low polyreactivity
5,QVQLVESGGCLVQAGGSLRLSCAASGSILATNVMGWYRQSPGKESQFVAAISSGGSTNYADSVKGRFTISRDNAKYTVYLQMNSLKPEDTAVYYCATSSIWGSGRVRWVSYYYWGQGSQVTVSS,low polyreactivity
6,QVQLVESGGCLVQAGGSLRLSCAASGSLFKPYAMGWYIQAPGKEREFVAAINRGGTSTYYADSVKGRFTIARDNAKNTVFLQMKSLKPEDTAVYYCNAESPYYADGDTVRDDYWGQGTQVTVSS,low polyreactivity
7,QVQLVESGGCLVQAGGSLRLSCAASGSTFNKYAMGWYRQAPGKERELVAAIRSNGVRTYYADSVKGRFSISRDNAKNTVYLQMNSLKPEDTPVYYCNKRYTYRYDYWGQGTQVCVSS,high polyreactivity
8,QVQLVESGGCLVQAGGSLRLSCAASGSTFNYYAMGWYRQAPGKERELVAAISSSGGRTYYADSVKGRFTISRDNAKNTVYLQMNSLKPEDTAVYYCNARTYSYRGYNYWGQGTQVTVSS,high polyreactivity
9,QVQLVESGGCLVQAGGSLRLSCAASGSTFPIYAMGWYRQAPGKERELVARITWNGGRTYYADSVKGRFTISRDNAKNTVYLQMNSLKPEDTAVYYCNARRYLRGYGYGYWGQGTQVTVSS,high polyreactivity
10,QVQLVESGGCLVQAGGSLRLSCAASGSTFRWNSIGSYRQAPVKEREFVASITSGGSTNYADSVKGRYTISRDIAKNTVYLQMNSLKPYDTAVYYCNADVRRSSYYVWLYDYWGQGTQVTVSS,low polyreactivity
11,QVQLVESGGCLVQAGGSLRLSCAASGSTFYDYDMGWYRQAPGKERELVAAISSSVSTYYADSVKGRFTISRDNAKNTVYFQMNSLKPEDTAVYYCAADYTGVWRYDYWGQGTQVTVSS,low polyreactivity
12,QVQLVESGGCLVQAGGSLRLSCAASGSTLIEYAMGWYRQAPGKESELVARISKSGDSTYYADSVKGRFTISRDNAKNTVYLQMISLKPEDTAVYYCAKYHRDGFYRSYLRTFDFGYWGQGTQVTVSS,low polyreactivity
13,QVQLVESGGCLVQAGGSLRLSCAASGSTLRSHAMGWYRQAPGKERELVASISAGGSTSYADSVKGRFTISRDNAKNTVYRQMNSLKPEDTAVYYCAADNSVGSYDYWGQGTEVTVSS,low polyreactivity
14,QVQLVESGGCLVQAGGSLRLSCAASGSTLRYYAMGWYRQAPGKERELDARIRSNGGSTYYADSVKGRFTISRDNANNTVYLQMNSLKPEETAVYYCAARTYRGQYYTGFGFGYWGQGSQVTVSS,high polyreactivity
15,QVQLVESGGCLVQAGGSLRLSCAASGSTYPVNAMVWSRKEPGKERELDATISWNDDSTDYADSVKGRFTISRDNAKNNVYLQLKSLKPEDTAVYYCAADWHAWGLYTFNSWGQGTLVTVSS,low polyreactivity
16,QVQLVESGGCLVQAGGSLRLSCAASGYTFVHYDMGWYRQAPGKEREFVAAISGATYYADSVTGRFTISRDNAKNTVYLQMNSLKLEDTAVYYCNAYAYVESPSDMDYWGQGTQVTVSS,low polyreactivity
17,QVQLVESGGCLVQAGGSLRLSCAASGYTFYVYAMGWYRQAAGKVRELVSAISGGSNTYYADSVKGRFTISRDNAKNTVYLQMNSLKPEDTALYYCAKSSTTYRQRARYDYWGHGTQVTVSS,high polyreactivity
18,QVQLVESGGCLVQAGGSLRLSCAASGYTLATYAMGWYRQAPGKERELVAAITSTGGTTYYADSVKGRFTISRDNAKNTVYLPMNSLKPEDTAVYYCNAAAALYKRYDYWGQGTQVTVSS,high polyreactivity
19,QVQLVESGGCLVQAGGSLRLSCADSGSTFVIYYMGWYRQAPGKERELVAAISYSGGSTYYADSVKGRFTISRDNAKNTVYLQMNSLKPEDTAVYYGYDYWGQGTQVTVSS,low polyreactivity
20,QVQLVESGGCLVQAGGSLRLSCAPSGYTFGRNAMGWYRQAPGKEWELVATISQRGGSTYYADSVKGRFTISRDNAKNTVYLQLNSLKPEDTAVYYCSAGPIYRYRRYYYWGQGTQVTVSS,high polyreactivity
21,QVQLVESGGCLVQAGGSLRLSCASSGITFPGYAMGWYRQAPGKERELVAVIRKSGTSTYYADSVKGRFTISRDNAKNTVDLQMNSLKPEDTAVYYCAAGGPSTLDDYWGQGTQGTVSS,low polyreactivity
22,QVQLVESGGCLVQAGGSLRLSCASSGSTFHSYAMGWYRQAPGKERELVAAISRSGGSTYYADSVKGRFTISRDNAKNTVYLQMNSLKPEDTAVYYCAARDLQFSGYYYWGQGTQVTVSS,high polyreactivity

row,Sequence,polyreactivity (PSR sort gate)
1,QVQLVESGGCLVQAGGSLRLSSAASGFTFDKYAMGWYRQAPGKEMELVAAISGSGGTTYYADSVKGRFTISRDNAKNTVYLQMNSLKPEDTAVYYCATRLYSIYSYGYWGQGTQVTVSS,high polyreactivity
2,QVQLVESGGCLVQAGGSLRLSSAASGSTFQNYAMGWYRQATGKERELVAAISSGGRTYYADSVKGRFTISRDNAKNTVYLQMYSLKPEDTAVYYCAVRYRVYKFQYGYWGQGTQVTVSS,high polyreactivity
3,QVQLVESGGCLVQAGGSLRLSSAASGSTFYYYVMGLYRQAPGKERELVAAINSGGSTYYADSVQGRFTISRDNAKNTVYLQMNSLKPEDTAVYYCAKSCSYWYQYYYWGQGSQVTVSS,low polyreactivity
4,QVQLVESGGCLVQAGGSLRLTCAASGIIFYAYAMGWYRQAPGKEREFVAAINNSGGRTYYADSVKGRFTISRDNAKNTVYLQMHSLKPEDTAVYYCAVYSYYRRTYRREMDYWGQGTQVTVSS,high polyreactivity
5,QVQLVESGGCLVQAGRSLRLSCAASGRTFPTYAMGWYRQAPGKERELVAAIRISGGRTYYADSVKGRFTISRDISKNTVYLQMNSLKPEDTAVYYCATRDRAGYYYWGQGTQVTVSS,high polyreactivity
6,QVQLVESGGCLVQARGSLRLRCAASGGTFYAYAMGWYREAPGKERELVAAISRSGSTYYADSVKGRFTISRDNAKNTVYLQMNSLKPEDTAVYYCAARRARRDPVGYVYAKYVYWGQGTQVTVSS,high polyreactivity
7,QVQLVESGGCLVQGGGSLRLTWAASGRTFPYNNMRRYRQAPGKERELVASITYTDGSTSYADCVKGRFTISRDNAKNTVYLQMNSLKPQDTADYYCAAVYYAHQDYRFDYWGQGTQVTVSS,low polyreactivity
8,QVQLVESGGCSVQAGGSLRLICAASGYTFYINAMGWYRPAPGKERELVAVITWSSGSTYYADSVKGRFTISRDNAKNTVYLQMYSLKAEDTAVYYCAADVTYEDGAWTIQYDYWGQGTQVTVSS,high polyreactivity
9,QVQLVESGGCVVQAGGSLRLICAASGRTFGRNVMGWYRQAPGKEMELVAAISRSGGSTYYADSVKGRFTISRDNAKNTVYLQMNSLKPEDTAVYYCAAYSVGDYYWGQGTQVTVSS,high polyreactivity
10,QVQLVESGGDLVQAGGSLRLSCAASGSIFYINAMGWYRQAPGKERELVASISYSGTSTYYADSVKGRFTISRDNAKNTVYLQMNSLKPEDTAVYYCNAEDTPGAGDGYWGQGTQVTVSS,low polyreactivity
11,QVQLVESGGFLDQAGGSLRLSCAASGFTFYYYAMGWYRQAHAKERELVAAITARGVSTYYADSVKGRFTISRDNAKNTVYLQMNRLNPEDTAVYYCAKRRYYYAPAIPGYYYWGQGTKVTVSS,high polyreactivity
12,QVQLVESGGFLVQAGGSLRLTCAASGSIIENNAMGWSRQAPRKERELVDAISSDDTTNYADSVKGRFTISRDNAKNTVYLLMNRLLPVDTAVYYCNVDSGPEDKTVTYDYWGQGTQVTVSS,low polyreactivity
13,QVQLVESGGGFVQAGASLRLSCAASGRTCHGYAMGWYRQAPGKERDLVAAINASGGRTYYAESVKGRFTISRDNAKNTVYLLMNSLNPEDTAVYYCGVYSASFRYGLANDYWGQGTQVTVSS,high polyreactivity
14,QVQLVESGGGFVQAGCSLRLSCAASGSIFLYNAMGWYRQAPGNDRELVATISYIGGRTYYADSVKGRFSISRDKAKNTVYSQMNSLKPEDTAVYYCAAEYYVISSPSFYEYDYWGQGTQVTVSS,low polyreactivity
15,QVQLVESGGGFVQAGGSLRLSCAACGRIFATYAMRWYRQAPGKERELVASFSYSDGSTYADSVKGRFTISRDNAKNTVYLQMNSLKPEDTAVYYCAAERLTHWGAFAAYDYWGQGTQVTVSS,low polyreactivity
16,QVQLVESGGGFVQAGGSLRLSCAASGFTFQYYGMGWYRQAPGKERELVAAINWSGGRTYYADSVKGRFTISRDNAKNTVYLQMNSLKPEDTAVYYCAATRSFSGGYGYVSYDYWGQGTQVTVSS,high polyreactivity
17,QVQLVESGGGFVQAGGSLRLSCAASGIIFDYDAMGWYRQAPGKERELVAAISKRGGSTYYADSVKGRFTISRDHAKNTVYFQMNSLKPEDTAVYYCAAVYAREAKRYDYWGPGTQVTVSS,high polyreactivity
18,QVQLVESGGGFVQAGGSLRLSCAASGIIFEYYTMGWYRQAPGKERELVASINYDGDSTYYADSVKGRFTISRDNAKNTVYLQMNSLKPEDTAVYYCSAEFYYVYSSFGHYYWGQGTQVTVSS,low polyreactivity
19,QVQLVESGGGFVQAGGSLRLSCAASGIIFTLYTMGWYIQAPGKERELVASISTRGGSTYYADSVKGRFTISRDYAKNTVYLQMNSLKPEDTAVYYCAAQGGYPVWRYYYWGQGTQVTVSS,high polyreactivity
20,QVQLVESGGGFVQAGGSLRLSCAASGLTLFRYAMGWYSQAPGKEREFVAAISPSGDRTYYADSVKGRFTISRDNAKNTVDLQMNSLKPEDTAVYYCNAWRYDYWGQGTQVTVSS,high polyreactivity
21,QVQLVESGGGFVQAGGSLRLSCAASGRIFHHNAMGGYRQAPGKVRELDATITKSGGSTYADSVKGRFTISRANAKNTVYLQMNSRKPEETAVYSCAATSVGAYGVRKYWYDYWAQGTQVTVSS,low polyreactivity
